Data on 14 molecules can be found in US20250109209A1 (ABSCI, published 2025).

Assay [1] concerns the target T1, human TL1A (human, UniProt O95150 72-251).
T1 construct: Antigen in SPR and ELISA; Also used here for places that print only 'TL1A' and for endogenous TL1A in human whole blood; also called TNFSF15
T1 sequence (looked up): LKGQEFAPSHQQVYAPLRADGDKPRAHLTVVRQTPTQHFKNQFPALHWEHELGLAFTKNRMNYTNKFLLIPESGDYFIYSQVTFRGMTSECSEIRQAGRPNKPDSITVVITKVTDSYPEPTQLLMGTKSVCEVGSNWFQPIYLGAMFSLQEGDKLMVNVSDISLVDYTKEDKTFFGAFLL
Description: selectivity ELISA: antibody pre-incubated with TL1A, inhibition of TL1A binding to plate-coated DR3. (In general: An ELISA detects its analyte on a solid surface through an enzyme-linked reagent.)

The target of assay [2] is T1, human TL1A. The assay can be described thus: selectivity ELISA: antibody pre-incubated with TL1A, inhibition of TL1A binding to plate-coated DcR3.
The target in assay [3] is T1, human TL1A. Description: SPR, affinity capture of Fab, average. On the technique in general: In SPR one partner is held on a chip, and binding of the other changes the refractive index at the surface.
Assay [4] concerns the target T2, mouse TL1A (mouse, UniProt Q5UBV8 76-252, limits assumed).
T2 sequence (looked up): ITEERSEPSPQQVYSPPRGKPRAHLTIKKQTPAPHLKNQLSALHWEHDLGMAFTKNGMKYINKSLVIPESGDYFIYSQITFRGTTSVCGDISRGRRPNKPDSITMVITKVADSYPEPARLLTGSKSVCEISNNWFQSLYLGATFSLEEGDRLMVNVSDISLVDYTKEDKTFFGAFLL
The assay can be described thus: SPR, mAb format.

Assay [5] addresses T1, human TL1A. The assay can be described thus: SPR, mAb format, average.
Assay [6] has as its target T1, human TL1A. Description: SPR, mAb format, average. This is another data set of the same source.
The target of assay [7] is T3, Cyno TL1A (cyno, UniProt G7PRK8 72-251).
T3 sequence: T1 sequence (looked up) with F39L, I78V
The assay can be described thus: SPR, mAb format, average.

For assay [8], the target named is T1, human TL1A. The assay can be described thus: SPR, mAb format, average. The source holds these as a separate data set.
For assay [9], the target named is T4, FcRn (UniProt P55899 24-297; P61769 21-119).
T4 construct: also called neonatal receptor
T4 sequence (P55899 24-297 limits assumed, chain 1 of 2): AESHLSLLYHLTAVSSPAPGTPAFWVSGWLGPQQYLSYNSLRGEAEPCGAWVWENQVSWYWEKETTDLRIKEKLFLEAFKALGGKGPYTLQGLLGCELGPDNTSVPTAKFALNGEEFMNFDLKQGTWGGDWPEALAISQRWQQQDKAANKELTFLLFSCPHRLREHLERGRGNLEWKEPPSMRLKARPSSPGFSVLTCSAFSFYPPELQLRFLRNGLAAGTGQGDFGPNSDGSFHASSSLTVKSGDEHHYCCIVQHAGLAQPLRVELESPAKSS
T4 sequence (P61769 21-119 limits assumed, chain 2 of 2): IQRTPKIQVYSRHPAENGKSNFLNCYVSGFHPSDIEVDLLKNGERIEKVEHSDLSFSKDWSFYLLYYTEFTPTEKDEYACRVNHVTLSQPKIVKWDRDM
The assay can be described thus: SPR, mAb format, FcRn at pH 6.0, average.

For assay [10], the target named is T2, mouse TL1A. Description: SPR, mAb format, average.
Assay [11] has as its target T3, Cyno TL1A. Description: SPR, representative sensorgram with Cyno TL1A.
Assay [12] addresses T1, human TL1A. Description: SPR, representative sensorgram with Human TL1A.
In assay [13] the target is T4, FcRn. Description: SPR, representative sensorgram with FcRn, pH 6.0.

Residue numbers refer to the chain shown, from its start.

B1: TEV-48574 (antibody, V domains shown)
VH: QVQLVQSGAEVKKPGASVKVSCKASGYTFTSYDINWVRQAPGQGLEWMGWLNPNSGYTGYAQKFQGRVTMTADRSTSTAYMELSSLRSEDTAVYYCAREVPETAAFEYWGQGTLVTVSS
VL: QSVLTQPPSVSGAPGQRVTISCTSSSSDIGAGLGVHWYQQLPGTAPKLLIEGYYNRPSGVPDRFSGSKSGTSASLTITGLLPEDEGDYYCQSWDGTLSALFGGGTKLTVLR
A word on the IC50: it is the concentration at which inhibition is half-maximal. A low value points to greater potency in that assay. Turning to B1, the IC50 with human TL1A [1] was 2.6 µg/mL; with human TL1A [2] it was 0.7 µg/mL.

B2: Heron2B-Toci (Fab, V domains shown)
VH: QVQLQESGPGLVRPSQTLSLTCTVSGFDIQDTYMHWVRQRPGRGLEWMGRIDPASGHTKYNPSLKSRVTITRDTSKNQVSLRLSSVTAADTAVYYCARSGGLPDVWGQGSLVTVSS
VL: DIQMTQSPSSLSASVGDRVTITCRASSSVSYMYWYQQKPGKAPKLLIYATSNLASGVPSRFSGSGSGTDFTFTISSLQPEDIATYYCQQWEGNPRTFGQGTKVEIK
notes: also called Heron2B-toci parent
In general, Kd refers to the constant that tells how readily two partners part at equilibrium. Low readings indicate a tighter complex, high ones a looser complex. With B2, the Kd with human TL1A [3] was 5.71 nM.

B3: RVT-3101 (antibody, V domains shown)
VH: QVQLVQSGAEVKKPGASVKVSCKASGYDFTYYGISWVRQAPGQGLEWMGWISTYNGNTHYARMLQGRVTMTTDTSTRTAYMELRSLRSDDTAVYYCARENYYGSGAYRGGMDVWGQGTTVTVSS
VL: EIVLTQSPATLSLSPGERATLSCRASQSVSSYLAWYQQKPGQAPRLLIYDASNRATGIPARFSGSGSGTDFTLTISSLEPEDFAVYYCQQRSNWPWTFGQGTKVEIK
With B3, the IC50 in the assay with human TL1A [1] was found to be 4.4 µg/mL; in the assay with human TL1A [2], 0.8 µg/mL.

B4: Antibody 2 (mAb format) (antibody, human IgG1, kappa, N297A)
heavy: QVQLQESGPGLVRPSQTLSLTCTVSGLDPDDTYMHWVRQRPGRGLEWMGRIEPAGGHTKYNPSLKSRVTITRDTSKNQVSLRLSSVTAADTAVYYCVISGGLPDVWGQGSLVTVSSASTKGPSVFPLAPSSKSTSGGTAALGCLVKDYFPEPVTVSWNSGALTSGVHTFPAVLQSSGLYSLSSVVTVPSSSLGTQTYICNVNHKPSNTKVDKKVEPKSCDKTHTCPPCPAPELLGGPSVFLFPPKPKDTLMISRTPEVTCVVVDVSHEDPEVKFNWYVDGVEVHNAKTKPREEQYASTYRVVSVLTVLHQDWLNGKEYKCKVSNKALPAPIEKTISKAKGQPREPQVYTLPPSRDELTKNQVSLTCLVKGFYPSDIAVEWESNGQPENNYKTTPPVLDSDGSFFLYSKLTVDKSRWQQGNVFSCSVLHEALHSHYTQKSLSLSPGK
light: DIQMTQSPSSLSASVGDRVTITCRASSSVSYMYWYQQKPGKAPKLLIYATSNLASGVPSRFSGSGSGTDFTFTISSLQPEDIATYYCQQWEGNPRTFGQGTKVEIKRTVAAPSVFIFPPSDEQLKSGTASVVCLLNNFYPREAKVQWKVDNALQSGNSQESVTEQDSKDSTYSLSSTLTLSKADYEKHKVYACEVTHQGLSSPVTKSFNRGEC
notes: also called high priority lead mAb
For B4, the binding result with mouse TL1A [4] is “no binding”. In addition, the Kd with human TL1A [5] came to 0.195 nM; in the assay with human TL1A [6] it was 0.195 nM; with Cyno TL1A [7] it was 0.408 nM; with human TL1A [8], 0.195 nM; with FcRn [9], 17.1 nM.

B5: Antibody 3 (mAb format) (antibody, human IgG1, kappa, N297A)
heavy: B4 heavy with L27F, P29I, D30Q, I98R, V105A
light: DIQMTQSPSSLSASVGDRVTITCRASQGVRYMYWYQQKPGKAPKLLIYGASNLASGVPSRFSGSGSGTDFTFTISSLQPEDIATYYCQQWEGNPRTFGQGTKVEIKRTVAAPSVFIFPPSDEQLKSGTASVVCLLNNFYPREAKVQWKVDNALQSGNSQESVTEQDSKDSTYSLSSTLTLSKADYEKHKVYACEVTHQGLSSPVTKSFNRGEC
notes: as for B4
In the case of B5, the Kd in the assay with human TL1A [5] turned out to be 0.044 nM; with human TL1A [6] it was 0.044 nM; with Cyno TL1A [7] it was 0.032 nM; in the assay with mouse TL1A [10], 117 nM; in the assay with human TL1A [8], 0.044 nM; in the assay with FcRn [9] it was 16 nM. In addition, the Kd is below 0.031 nM with Cyno TL1A [11], below 0.044 nM with human TL1A [12] and 14 nM with FcRn [13].

B6: Antibody 12 (mAb format) (antibody, human IgG1, kappa, N297A)
heavy: B4 heavy with L27F, P29I, D30T, I98R
light: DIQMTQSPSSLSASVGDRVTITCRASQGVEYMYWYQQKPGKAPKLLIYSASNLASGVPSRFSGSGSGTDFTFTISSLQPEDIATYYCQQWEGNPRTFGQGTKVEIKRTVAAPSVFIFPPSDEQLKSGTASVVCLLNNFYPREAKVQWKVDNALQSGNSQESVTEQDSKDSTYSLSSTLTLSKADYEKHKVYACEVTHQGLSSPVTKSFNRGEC
notes: as for B4
B6: the Kd was determined as 0.17 nM with human TL1A [5]; 0.17 nM with human TL1A [6]; 0.118 nM with Cyno TL1A [7]; 13100 nM in the assay with mouse TL1A [10]; 0.17 nM with human TL1A [8]; 19.7 nM with FcRn [9].

B7: Antibody 14 (mAb format) (antibody, human IgG1, kappa, N297A)
heavy: B4 heavy
light: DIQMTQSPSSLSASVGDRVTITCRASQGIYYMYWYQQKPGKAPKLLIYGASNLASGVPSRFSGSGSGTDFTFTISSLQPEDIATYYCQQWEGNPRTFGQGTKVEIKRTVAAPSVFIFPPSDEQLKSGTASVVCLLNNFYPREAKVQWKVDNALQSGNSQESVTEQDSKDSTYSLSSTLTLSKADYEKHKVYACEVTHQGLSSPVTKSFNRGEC
notes: as for B4
As to B7, the Kd with human TL1A [5] is 0.296 nM; with human TL1A [6], 0.296 nM; with Cyno TL1A [7], 0.224 nM; with mouse TL1A [10] it was 3810 nM; with human TL1A [8], 0.296 nM; with FcRn [9], 19.8 nM.

B8: Antibody 19 (mAb format) (antibody, human IgG1, kappa, N297A)
heavy: B4 heavy with L27F, P29I, D30T, I98R
light: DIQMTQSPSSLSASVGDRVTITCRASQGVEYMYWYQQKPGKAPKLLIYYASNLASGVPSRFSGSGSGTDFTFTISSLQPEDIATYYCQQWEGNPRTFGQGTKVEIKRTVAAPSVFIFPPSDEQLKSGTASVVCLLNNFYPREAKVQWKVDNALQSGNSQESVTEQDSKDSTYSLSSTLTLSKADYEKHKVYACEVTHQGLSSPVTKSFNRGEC
notes: as for B4
Regarding B8, the Kd is 0.38 nM with human TL1A [5]; 0.38 nM with human TL1A [6]; 0.123 nM in the assay with Cyno TL1A [7]; 691 nM with mouse TL1A [10]; 0.38 nM with human TL1A [8]; 16.5 nM with FcRn [9].

B9: Antibody 17 (mAb format) (antibody, human IgG1, kappa, N297A)
heavy: B4 heavy with L27F, P29M, D30G, G55A, I98R
light: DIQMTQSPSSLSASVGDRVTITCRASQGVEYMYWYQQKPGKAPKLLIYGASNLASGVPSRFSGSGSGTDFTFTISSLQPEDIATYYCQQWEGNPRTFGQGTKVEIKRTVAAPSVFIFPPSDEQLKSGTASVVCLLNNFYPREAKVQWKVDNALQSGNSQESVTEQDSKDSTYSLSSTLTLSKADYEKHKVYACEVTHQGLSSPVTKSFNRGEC
notes: as for B4
For B9, the Kd in the assay with human TL1A [5] came to 0.172 nM; with human TL1A [6], 0.172 nM; in the assay with Cyno TL1A [7] it was 0.099 nM; with mouse TL1A [10] it was 452 nM; with human TL1A [8], 0.172 nM; with FcRn [9] it was 17.4 nM.

B10: Antibody 15 (mAb format) (antibody, human IgG1, kappa, N297A)
heavy: B4 heavy with L27F, P29I, D30Q, I98R, V105A
light: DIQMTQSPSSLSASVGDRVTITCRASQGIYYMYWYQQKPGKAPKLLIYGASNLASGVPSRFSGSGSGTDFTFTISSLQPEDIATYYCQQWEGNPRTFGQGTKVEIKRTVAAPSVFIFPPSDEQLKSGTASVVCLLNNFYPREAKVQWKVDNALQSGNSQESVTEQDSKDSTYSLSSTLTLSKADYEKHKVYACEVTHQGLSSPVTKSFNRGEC
notes: as for B4
For B10, the Kd was determined as 0.067 nM in the assay with human TL1A [5]; 0.067 nM with human TL1A [6]; 0.046 nM with Cyno TL1A [7]; 162 nM in the assay with mouse TL1A [10]; 0.067 nM with human TL1A [8]; 17.4 nM in the assay with FcRn [9].

B11: Antibody 13 (mAb format) (antibody, human IgG1, kappa, N297A)
heavy: B4 heavy with L27F, P29Y, D30Q, E52D, G55S, V97A, I98V, L102M
light: B4 light with S27Q, S28G, S30E
notes: as for B4
Turning to B11, the binding result in the assay with mouse TL1A [4] is on record as “no binding”. The Kd with human TL1A [5] is 0.385 nM; with human TL1A [6], 0.385 nM; with Cyno TL1A [7], 0.154 nM; in the assay with human TL1A [8] it was 0.385 nM; with FcRn [9], 18.8 nM.

B12: Antibody 20 (mAb format) (antibody, human IgG1, kappa, N297A)
heavy: B4 heavy with L27F, P29I, D30Q, G55S, V97A, I98R, L102M, V105M
light: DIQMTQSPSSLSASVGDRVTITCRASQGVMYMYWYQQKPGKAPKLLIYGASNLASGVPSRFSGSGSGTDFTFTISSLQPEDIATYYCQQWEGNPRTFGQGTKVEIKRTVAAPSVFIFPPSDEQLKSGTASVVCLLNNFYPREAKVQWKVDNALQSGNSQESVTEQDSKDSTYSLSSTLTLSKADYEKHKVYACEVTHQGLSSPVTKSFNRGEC
notes: as for B4
For B12, the Kd was 0.079 nM with human TL1A [5]; 0.079 nM in the assay with human TL1A [6]; 0.046 nM in the assay with Cyno TL1A [7]; 391 nM in the assay with mouse TL1A [10]; 0.079 nM with human TL1A [8]; 16.4 nM with FcRn [9].

B13: Antibody 10 (mAb format) (antibody, human IgG1, kappa, N297A)
heavy: B4 heavy
light: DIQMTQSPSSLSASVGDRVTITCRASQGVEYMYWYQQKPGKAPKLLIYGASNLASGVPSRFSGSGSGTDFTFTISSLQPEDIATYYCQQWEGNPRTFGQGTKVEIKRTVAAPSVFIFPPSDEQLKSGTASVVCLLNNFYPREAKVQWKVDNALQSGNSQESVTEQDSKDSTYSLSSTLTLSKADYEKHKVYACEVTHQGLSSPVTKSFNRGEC
notes: as for B4
For the molecule B13, the binding result with mouse TL1A [4] is on record as “no binding”. Moreover, the Kd stood at 0.482 nM with human TL1A [5]; 0.482 nM with human TL1A [6]; 0.253 nM with Cyno TL1A [7]; 0.482 nM with human TL1A [8]; 22.1 nM in the assay with FcRn [9].

B14: Antibody 18 (mAb format) (antibody, human IgG1, kappa, N297A)
heavy: B4 heavy with L27F, P29M, D30G, I98R, L102M
light: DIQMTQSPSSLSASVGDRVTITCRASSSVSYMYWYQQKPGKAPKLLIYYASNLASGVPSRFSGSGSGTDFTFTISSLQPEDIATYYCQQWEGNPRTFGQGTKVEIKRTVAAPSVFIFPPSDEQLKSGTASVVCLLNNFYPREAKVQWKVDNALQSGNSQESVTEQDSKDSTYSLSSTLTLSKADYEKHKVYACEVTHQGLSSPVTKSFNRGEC
notes: as for B4
Turning to B14, the Kd with human TL1A [5] is 0.252 nM; with human TL1A [6], 0.252 nM; with Cyno TL1A [7], 0.087 nM; in the assay with mouse TL1A [10], 397 nM; in the assay with human TL1A [8], 0.252 nM; with FcRn [9], 16.2 nM.
